Some results are limits rather than exact numbers.

The target in assay [1] is polyclonal human IgG (Gammanorm, Octapharma) (human). The assay is described as follows: gradient elution pH 6 to pH 3 from a column of immobilised ligand; polyclonal IgG (Gammanorm) shows the biggest difference.
Assay [2] has the same target. In words: breakthrough on a column of immobilised ligand, 1 mg/ml IgG, pH 7.4, residence time 2.4 min, ligand density 9.6 mg/ml.
Assay [3] has the same target. The assay is described as follows: gradient elution pH 6 to pH 3 (0.1 M citrate) from a column of immobilised ligand, pH at peak apex.

As for “Mutant Z(H18S)4: ligand tetramer containing four copies of protein Z, each containing the H18S substitution (designed binder)”, in assay [1], the increase in elution pH compared to Z4 is > 1 >pH unit. For the same substance, in assay [2], the Qb10% (dynamic binding capacity at 10% breakthrough) came to 36.4 mg/ml resin and the Qb80% (dynamic binding capacity at 80% breakthrough) amounted to 65 mg/ml resin. In assay [3], this substance returned an elution pH, hIgG (first peak) of 5.11 pH and an elution pH, hIgG (second peak) of 4.61 pH.

Source of the values: patent US20130338339A1.
